Test results from patent publication US20200040059A1.

These substances were tested against PD-1 (human) (assay: cell-based or functional assay).

Row | Substance | Fold increase over wildtype PD-L2 IgV-Fc, MLR IFN gamma [fold] | IFN gamma levels pg/mL, MLR [pg/mL]
1 | PD-L2 IgV-Fc H15Q, T47A, S67L, Q82R, V89D (Fc fusion) | 0.87 | 1200
2 | PD-L2 IgV-Fc H15Q, T47A, S67L, R76G, Q82R, V89D (Fc fusion) | 0.8 | 1100
3 | PD-L2 IgV-Fc H15Q, V31M, S67L, Q82R, V89D (Fc fusion) | 0.88 | 1210
4 | PD-L2 IgV-Fc H15Q, V89D (Fc fusion) | 1.09 | 1500
5 | PD-L2 IgV-Fc I12V, I13V, H15Q, T47A, Q82R, V89D (Fc fusion) | 1.11 | 1530
6 | PD-L2 IgV-Fc I13V, E44D, Q82R, V89D (Fc fusion) | 0.73 | 1010
7 | PD-L2 IgV-Fc I13V, H15Q, E44D, V89D (Fc fusion) | 1.01 | 1380
8 | PD-L2 IgV-Fc I13V, H15Q, E44V, T47A, Q82R, V89D (Fc fusion) | 0.92 | 1270
9 | PD-L2 IgV-Fc I13V, H15Q, I36V, T47A, S67L, V89D (Fc fusion) | 0.99 | 1360
10 | PD-L2 IgV-Fc I13V, H15Q, L33F, T47A, Q82R, V89D (Fc fusion) | 1.07 | 1470
11 | PD-L2 IgV-Fc I13V, H15Q, Q72H, R76G, I86T (Fc fusion) | 0.89 | 1220
12 | PD-L2 IgV-Fc I13V, H15Q, Q82R (Fc fusion) | 1.04 | 1430
13 | PD-L2 IgV-Fc I13V, H15Q, Q82R, V89D (Fc fusion) | 1.16 | 1600
14 | PD-L2 IgV-Fc I13V, H15Q, R76G, D77N, Q82R, V89D (Fc fusion) | 0.86 | 1190
15 | PD-L2 IgV-Fc I13V, H15Q, R76G, I85F (Fc fusion) | 1.11 | 1530
16 | PD-L2 IgV-Fc I13V, H15Q, S39I, E44D, S67L (Fc fusion) | 0.91 | 1260
17 | PD-L2 IgV-Fc I13V, H15Q, S67L, I86T (Fc fusion) | 0.74 | 1010

Row | Substance | Fold increase over wildtype PD-L2 IgV-Fc, MLR IFN gamma [fold] | IFN gamma levels pg/mL, MLR [pg/mL]
18 | PD-L2 IgV-Fc I13V, H15Q, T37A, E44D, S48C, S67L, Q82R, V89D (Fc fusion) | 1.27 | 1750
19 | PD-L2 IgV-Fc I13V, H15Q, T47A, E58G, S67L, Q82R, V89D (Fc fusion) | 0.61 | 836
20 | PD-L2 IgV-Fc I13V, H15Q, T47A, H69L, R76G, V89D (Fc fusion) | 0.78 | 1080
21 | PD-L2 IgV-Fc I13V, H15Q, T47A, Q72H, R76G (Fc fusion) | 1.07 | 1470
22 | PD-L2 IgV-Fc I13V, H15Q, T47A, Q72H, R76G, I86T (Fc fusion) | 0.79 | 1090
23 | PD-L2 IgV-Fc I13V, H15Q, T47A, Q82R (Fc fusion) | 1.24 | 1700
24 | PD-L2 IgV-Fc I13V, H15Q, T47A, Q82R, V89D (SEQ ID NO 1544) (Fc fusion) | 1.05 | 1450
25 | PD-L2 IgV-Fc I13V, H15Q, T47A, Q82R, V89D (SEQ ID NO 1545) (Fc fusion) | 1.26 | 1740
26 | PD-L2 IgV-Fc I13V, H15Q, T47A, R76G, V89D (Fc fusion) | 0.91 | 1250
27 | PD-L2 IgV-Fc I13V, H15Q, T47A, S67L, Q72H, R76G, Q82R, V89D (Fc fusion) | 1.13 | 1560
28 | PD-L2 IgV-Fc I13V, H15Q, V31A, N45S, Q82R, V89D (Fc fusion) | 1.25 | 1720
29 | PD-L2 IgV-Fc I13V, H15Q, V89D (Fc fusion) | 0.82 | 1120
30 | PD-L2 IgV-Fc I13V, Q72H, R76G, I86T (Fc fusion) | 1.42 | 1950
31 | PD-L2 IgV-Fc I13V, S39I, E44D, Q82R, V89D (Fc fusion) | 0.68 | 936
32 | PD-L2 IgV-Fc I13V, S67L, Q82R, V89D (Fc fusion) | 1 | 1370
33 | PD-L2 IgV-Fc I13V, S67L, V89D (Fc fusion) | 0.63 | 868
